Measurements published in paper PMC8044456, “Tandem UGT71B5s Catalyze Lignan Glycosylation in Isatis indigotica With Substrates Promiscuity” (Frontiers in Plant Science, 2021).

What was measured:
Assay in all cases: LC/MS glucosylation assay, Lineweaver-Burk
Assay type in all cases: biochemical, Isatis tinctoria
Settings in all cases: 2 mM UDP-glucose, 20–200 μM acceptor, 100 mM phosphate pH 8.0, 30°C
[1] = substrate: COc1cc(C[C@H]2COC(=O)[C@@H]2Cc2ccc(O)c(OC)c2)ccc1O
Description: (§1) LC/MS glucosylation assay, Lineweaver-Burk on IiUGT71B5b

[2] = substrate: Oc1cc2c(cc1[C@H]1OC[C@H]3[C@@H]1CO[C@@H]3c1ccc3c(c1)OCO3)OCO2
Description: as §1

[3] = substrate: COc1cc(C[C@H]2COC(=O)[C@@H]2Cc2ccc(O)c(OC)c2)ccc1O; remark: listed apart in the source
Description: (§2) LC/MS glucosylation assay, Lineweaver-Burk on IiUGT71B5a

[4] = substrate: COc1cc(C[C@@H](CO)[C@H](CO)Cc2ccc(O)c(OC)c2)ccc1O
Description: as §2

[5] = substrate: COc1cc([C@@H]2OC[C@@H]3[C@H]2CO[C@H]3c2ccc(O)c(OC)c2)ccc1O
Description: as §2

[6] = substrate: COc1cc(C[C@H]2CO[C@H](c3ccc(O)c(OC)c3)[C@H]2CO)ccc1O
Description: as §2

[7] = substrate: Oc1cc2c(cc1[C@H]1OC[C@H]3[C@@H]1CO[C@@H]3c1ccc3c(c1)OCO3)OCO2; remark: listed apart in the source
Description: as §2

[8] = substrate: [H][C@@]1(Oc2ccc([C@H]3OC[C@]4([H])[C@@H](c5ccc(O)c(OC)c5)OC[C@]34[H])cc2OC)O[C@H](CO)[C@@H](O)[C@H](O)[C@H]1O
Description: as §2

B1: IiUGT71B5b (Isatis tinctoria) (protein)
chain: MKIELVFMPSPGIGHLRSTVQLAKQLVNGDDRLSITVIIIPRSSGGDATDSAQISSLFTASQDRLRYESISVADEPTTNRLPTQHYIASQKPQVRDAVAKLIDPTRVDSPPRLAGFVVDMFCISMIDLADEFGVPTYMVYTSNARFLGITLHLQLMIDEKKYDATELDESVNELEFPCLTRPYPVDCLPHILISKDYLFMDQARSYRKMKGILVNTVAELEPHALELFSGDGDLPRAYPVGPVLHLESRSDHSNDDGKQSEILRWLDEQPAKSVVFLCFGSMGGFNEEQAREIAVALDRSGHRFLWSLRRASPDIMKEGPRDYTNLDEVLPEGFLDRTSERGKIIGWAPQAAVLAKPAIGGFVTHCGWNSMLESLWFGVPTVTWPLYAEQKVNAFEMVEELGLAVEIRRSLKGDLMFGGMETVTAEDIERAIRRVMEQGSDVRNRVKEMAEKCHVALTDGGSSKAALRKFIEDVVENVAA
notes: full-length ORF 1,443 bp, 480 aa; pET-32a+ tagged recombinant, E. coli BL21(DE3), Ni-NTA; tag removal not mentioned; gene in tandem cluster Ii4G26670/Ii4G26680/Ii4G26690 (Ii4G26690 = IiUGT71B5c); genome VHIU00000000
- Km [1]: 61.34 ± 1.48 µM
- Vmax [1]: 2.41e-05 µmol/min
- kcat [1]: 0.0277 s⁻¹
- kcat/Km [1]: 451 M⁻¹ s⁻¹
- Km [2]: 135.48 ± 10.90 µM
- Vmax [2]: 0.000125 µmol/min
- kcat [2]: 0.143 s⁻¹
- kcat/Km [2]: 1060 M⁻¹ s⁻¹

B2: IiUGT71B5a (Isatis tinctoria) (protein)
chain: MKIELVFIPSPGIGHLRSTVELAKQLVNGDDRLSITVIIIPRSSGGDATDSAQISSLFAASQDRLRYETISVADEPTADRLPTQLYIKNQKPQVRDAVAKILDPARVDSPPRLAGFVVDMFCTSMIDLADEFGVPTYMVYTSNATFLGITLHLQLMLDEKKYDTSELDESVNELEFPCLTRPYPVECLPYLFISKEWLPFFMDQARSFRKMKGILVNTVAELEPHALELFSGDDDLPRAYPVGPVLHLESGSDNSNDDGKQSEILRWLDDQPAKSVVFLCFGSMGGFNEEQTREIAVALDRSGHRFLWSLRRASPDILKQGPGDYTDLDEVLPEGFLDRTLERGKIIGWAPQAAVLAKPAIGGFVTHCGWNSMLESLWFGVPMVTWPLYAEQKVNAFVMVEELGLAVEIRRSLKGDLMAGGMETVAAEDIERAIRRVMEQDSDVRNRVKEMAEKCHVALTDGGSSQVALRKFIQDVIENVVV
notes: full-length ORF 1,449 bp, 482 aa; pET-32a+ tagged recombinant, E. coli BL21(DE3), Ni-NTA; tag removal not mentioned; gene in tandem cluster Ii4G26670/Ii4G26680/Ii4G26690 (Ii4G26690 = IiUGT71B5c); genome VHIU00000000
- Km [3]: 62.35 ± 1.53 µM
- Vmax [3]: 3.5e-05 µmol/min
- kcat [3]: 0.0403 s⁻¹
- kcat/Km [3]: 646 M⁻¹ s⁻¹
- Km [4]: 168.48 ± 9.18 µM
- Vmax [4]: 8.34e-05 µmol/min
- kcat [4]: 0.0961 s⁻¹
- kcat/Km [4]: 571 M⁻¹ s⁻¹
- Km [5]: 67.16 ± 2.00 µM
- Vmax [5]: 6.12e-05 µmol/min
- kcat [5]: 0.07 s⁻¹
- kcat/Km [5]: 1040 M⁻¹ s⁻¹
- Km [6]: 568.29 ± 16.08 µM
- Vmax [6]: 0.000141 µmol/min
- kcat [6]: 0.162 s⁻¹
- kcat/Km [6]: 285 M⁻¹ s⁻¹
- Km [7]: 48.00 ± 0.79 µM
- Vmax [7]: 0.00049 µmol/min
- kcat [7]: 0.563 s⁻¹
- kcat/Km [7]: 11700 M⁻¹ s⁻¹
- Km [8]: 136.06 ± 6.56 µM
- Vmax [8]: 0.000111 µmol/min
- kcat [8]: 0.128 s⁻¹
- kcat/Km [8]: 939 M⁻¹ s⁻¹
